PMC11242883

Legend:
[1] = target: eel follicle-stimulating hormone receptor (eel FSHR) on CHO-K1 cells (eel)
[2] = target: eel follicle-stimulating hormone receptor (eel FSHR) on HEK293 cells (eel)

cAMP production (HTRF) in CHO-K1 cells transiently expressing eel FSHR, 30 min, dose-response: EC50 [1] [µg/mL]	pERK1/2 HTRF ratio in HEK293 cells transiently expressing eel FSHR, time course 0-30 min after agonist; peak at 5 min [2]	Substance
0.16	7460	recombinant single-chain (tethered) eel follicle-stimulating hormone, wild type (eel FSH β/α-wt) (ligand)
0.129	7090	recombinant single-chain eel follicle-stimulating hormone mutant with the eCG β-subunit CTP linker (amino acids 115–149) between the β-subunit and the α-subunit (eel FSH-M) (from UniProt P08751 135-169) (ligand)
